Drawing on PMC8097376 (EMBO Reports, 2021), this text covers IC50 and Kd for one molecule.

For assay [1], the target named is T1, SARS-CoV-2 spike receptor-binding domain (RBD) (SARS-CoV-2, UniProt P0DTC2, biotinylated for BLI (site not stated); covalently coupled to MagPlex beads by EDC/sNHS in the bead assays). Put plainly: bead-based multiplex ACE2 competi. Conditions: both partners purified.
The target of assay [2] is T1, SARS-CoV-2 spike receptor-binding …. Put plainly: BLI. Conditions: both partners purified.

B1: nanobody NM1226 (VHH)
VHH: QVQLVESGGGSVQPGGSLRLSCLGSGSLDYYAIGWFRQAPGKEREGVSCIASSGDRTIYADSVKGRFTISRDYGKNTVYLQMNSLKPEDTAMYYCAALQGSYYYTGFVANEYDYWGQGAPVTVSS
For the molecule B1, the 50% inhibitory concentration (IC50) (commonly the concentration needed to halve the response being measured) in assay [1] was found to be 0.82 nM. Also, binding in assay [2] was characterised by a dissociation constant (Kd) of 3.66 nM.
